Experimental findings from doi:10.1101/2024.06.25.600654 (bioRxiv, 2024) are described below.

The data set concerns the molecule itself. Kind of data set: SEC-SAXS. In general terms: Size exclusion chromatography separates by hydrodynamic size, large species first.

B1: ParB1 from Vibrio cholerae (vcParB1) (natural protein)
chain: MTKRGLGKGLDALLATSSLAREKQQVASLSQSMSAEGELADLSISNLKPGIYQPRKDLSPEALEELAASIQSQGIIQPIVVRHLPTGGYEIIAGERRWRAAKQAGLKQVPCLIKQVEDRGAIAMALIENIQREDLNAMEEAQALERLQNEFNLTHQQVAEVIGKSRTTVTNLLRLNQLSDDVKRLLETKQLEMGHARALLMLEGEQQVEIAQQVAKKQLTVRQTEQLVKKCLSDPSDAKNVSEDLEIQQLSQNLSEKLAAKVSIVRTPNGKSKVTISLDEPHKLELLIAKLQN
In the case of B1, the stoichiometry N (as a rule, the number of molecules, sites or subunits per partner or assembly) was 2.
